Measured values taken from the supplement of paper PMC9170038.

Tested on: MS2 coat protein
Test: apparent KD of MS2 coat protein; designed switch direction (-1 OFF switch, 1 ON switch): 1; higher = weaker reporter binding
In short: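 Apparent KD, taken as the median over clusters for each design, was obtained by curve-fitting normalised cluster fluorescence. Designed RNA switches had been transcribed on Illumina chips by stalled E. coli RNA polymerase and titrated with SNAP-549-labelled MS2 coat protein, doubling from 0.7 or 1.5 nM to 3 µM.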

[1] = input ligand: microRNA oligo, concentration not stated
[2] = Eterna round: R95, input ligand: FMN 200 uM
[3] = Eterna round: R95, input ligand: microRNA oligo, concentration not stated
[4] = Eterna round: R95, input ligand: none

Sequence | apparent KD of MS2 coat protein (input ligand: FMN 200 uM) [nM] | apparent KD of MS2 coat protein [1] [nM] | apparent KD of MS2 coat protein (input ligand: none) [nM] | apparent KD of MS2 coat protein [2] [nM] | apparent KD of MS2 coat protein [3] [nM] | apparent KD of MS2 coat protein [4] [nM]
GGAGCCGGCACUGAGGAUAUUCAUAUUAAAACAUGAGGAUCACCCAUGUAGGCCAGAAGGCCUUGGGAGAAGGCGGGUCGGCCCG [Bibimoar - 3] (Eterna round: R96, puzzle: Same State 2) | 22.1 | 222 | 258 |  |  | 
GGAGCCGGCACUGAGGAUAUUCAUAUUAAAACAUGAGGAUCACCCAUGUAGGCCAGAAGGCCUUGGGAGAAGGCGGGUCGGCCCG [Bibimoar - 3] (puzzle: Same State 2) |  |  |  | 27.2 | 360 | 647
GGAGCCGGCCUAGGAUAUUUCAUAAUAAAACAUGAGGAUCACCCAUGUAGGCCAGAAGGCCUUGGGAAGAAGGAGGUCGGCUCC [Loop Effect - U26] (Eterna round: R96, puzzle: Same State NG 2) | 12.1 | 30.2 | 47 |  |  | 
GGAGCUGUUAUAGGAUAUCCCGCUCAUUACGCGGGAGAAGGGUGACGCUCACAUGAGGAUCACCCAUGUGGCGUUCCAAAAUAA [Reesti] (Eterna round: R96, puzzle: Same State NG 1) | 8.43 | 7.1 | 12.6 |  |  | 
GGAGGACAUGAGGAUCACCCAUGUGGAUGAUCGCUAGGAUAUGCGUGCGGGAGGAGUGGUGCAGAAGGAGUGGGAU [JR_SS1_Sub049] (puzzle: Same State 1) |  |  |  |  | 188 | 
GGAGGACAUGAGGAUCACCCAUGUGGAUGGGCGCUAGGAUAUGCGAGAGGGUGGAGAGAAGCAGAAGGAGUGGAUA [JR_SS1_Sub038] (puzzle: Same State 1) |  |  |  | 76.7 | 62.9 | 75
GGAGGGAGGGCGCAGGAUAUCGAUAAUGACACAUGAGGAUCACCCAUGUUUGGUAUUAGAAGGAACGAGAAGGGUGAGAGGAGGG [red_knee_arm] (puzzle: Same State 2) |  |  |  | 36.1 | 35.1 | 53.2
GGAUCGGAGGCAGGAUAUGGGCUCAGAACAUGAGGAUCACCCAUGUAAAACGGCGCAAUGCGCCACCAGAAGGGCCUCCGACCG [Inmadibi] (Eterna round: R96, puzzle: Same State NG 2) | 8.62 | 17.8 | 44.7 |  |  | 
GGAUGAUAGACAGGAUAUUGAUUGUAAUUAUGUCAAGAAGGGUCUUUGAUUUAAACGACCAGUUACAUGAGGAUCACCCAUGUU [JR_SSNG1_Sub029] (Eterna round: R96, puzzle: Same State NG 1) |  | 24.1 |  |  |  | 
GGAUGAUUAAUAGGAUAUUAGUUGUAAAAUGUUUAAGAAGGAUUAAUGAUUUAAACGACCAGUUACAUGAGGAUCACCCAUGUU [JR_SSNG1_Sub093] (Eterna round: R96, puzzle: Same State NG 1) |  | 20.6 |  |  |  | 
GGCACAAAAGCACAGGAUAUGCAAAAGAACACAUGAGGAUCACCCAUGUAGCCUAAUAAAGGGCAGCAGAAGGGUGGGACUGCCA [Quaat] (puzzle: Same State 2) |  |  |  | 74.5 | 239 | 239
GGCAUGCGGCGUACCGUAUGCUGGUAUGUACAUGAGGAUCACCCAUGUCAUGUACAGGCUUGUUGCUCGUCUUAUUG [JL-shm-2.41 JL mod] (puzzle: Sensor for hsa-mir-208a) |  |  |  | 137 | 34.3 | 158
GGCGAAUAAACAUGAGGAUCACCCAUGUAGCGGAGACGCAAUGAGGAUAUCGAUGGGUUUCCCGUCGAGAAGGCAUGGGUCGCC [JL SSNG3 3.93 mod 1] (Eterna round: R96, puzzle: Same State NG 3) | 20.8 | 99.6 | 140 |  |  | 
GGCUAGCCUCAAGGAUAUACGCUCUCAACAAAGAACCGACUACAUGAGGAUCACCCAUGUACCAUGUAGAAGGUGAGGUUAGCC [Eternabot solution 4] (Eterna round: R96, puzzle: Same State NG 2) |  | 397 |  |  |  | 
GGGAGAGACGUAGGAUAUGGAAGAAGAUAGAGACUAGAAGGGUGAACAUGAGAAUCGAAGUGUAAAGUGAGAUGAGGUGGGAGA [iteri-1] (Eterna round: R96, puzzle: Same State NG 1) | 26.5 | 16.9 | 36.9 |  |  | 
GGGCAGAGGGACAAGGAUAUGUCAGGAGAGACAUGAGGAUCACCCAUGUGGAGGUUGGAGCAGAGACAGAAGGUGUACGGAGCGA [JR_SS2_Sub011] (puzzle: Same State 2) |  |  |  | 34.4 | 105 | 107
GGGUAGAUUUGAGGAUAUCCUUAACCAACAUGAGGAUCACCCAUGUCCAAAAGAGUUCAUUUACCGGAGAAGGCAGAUGCACCC [Eternabot solution 50] (Eterna round: R96, puzzle: Same State NG 2) | 74.7 | 61.4 | 86.4 |  |  | 
GGUAAGAAUUAAGGAUAUUGAUUACAUAUGUUUAACAUGAGGAUCACCCAUGUGGGUUGCGGUAUCGAGAAGGUAAAAUAAUAG [Mat - same State NG 2 - JL mod - D83] (Eterna round: R96, puzzle: Same State NG 2) | 145 | 170 | 170 |  |  | 
GGUACAGUUACAGGAUAUGCUAUCCUUUGGGUAGCAGAAGGGUGGUAACAUGAGGAUCACCCAUGUGUGCCAGGGCGUGAGCCC [JL SSNG1 1.99] (Eterna round: R96, puzzle: Same State NG 1) | 502 | 387 | 700 |  |  | 
GGUACAUGAGGAUCACCCAUGUCAAAGGCACCGUGCAGACUGGAGGAUAUCACAGCAGAAAGCUGUGAGAAGGCCGUGUAAGCG [Eternabot solution 17] (Eterna round: R96, puzzle: Same State NG 3) | 17.4 | 24.6 | 42.9 |  |  | 
GGUAGGUUACUACCAAACAUGAGGAUCACCCAUGUAAAUGGGAAGGAUAUGGUACCUAUUUGGUACCAGAAGGUCCAAUUAAUU [JL Fiskers NG3ss - 2 mod 2] (Eterna round: R96, puzzle: Same State NG 3) | 670 | 1720 | 4550 |  |  | 
